Tested on: mixture of 40 different pTyr-including peptides derived from ITRMs
Assay: Capture of pTyr-including peptides from a mixture of ITRM peptides by QuadM-TrM tandem Superbinder versus TrM human Src SH2 Superbinder, scheduled PRM
Type: binding
Settings: for (QT-TrM)/mean: QuadM-TrM tandem vs TrM human Src SH2 Superbinder, PRM peak area
Text: A QuadM-TrM tandem Superbinder (SEQ ID NO: 15) was produced in E. Coli by expressing a recombinant DNA that contained the gene encoding the QuadM human Src Superbinder (SEQ ID NO: 12) in tandem with the gene encoding the TrM human Src Superbinder (SEQ ID NO: 5). Equal molar amounts (200 pmole) of the QuadM-TrM tandem Superbinder and the TrM human Src SH2 Superbinder were used to capture pTyr-including peptides from a mixture of 40 different pTyr-including peptides (200 fmole each) derived from ITRMs. The isolated peptides were identified by scheduled PRM and quantified based on the corresponding MS peak area.
Shown are the relative preferences of each pTyr-including peptide for the QuadM-TrM tandem Superbinder versus the TrM human Src SH2 Superbinder, as defined by the value of “(QT-TrM)/Mean”, where “QT” represents the amount of pTyr-including peptide captured by the QuadM-TrM tandem Superbinder, “TrM” represents the amount of pTyr-including peptide captured by the TrM human Src SH2 Superbinder, and “Mean” represents the mean amount of pTyr-including peptide captured by both the QuadM-TrM tandem Superbinder and the TrM human Src SH2 Superbinder. Yellow and blue shaded boxes indicate hydrophobic and hydrophilic residues, respectively, at the pTyr+3 position in the sequence of the pTyr-including peptide.

B1: QuadM-TrM tandem Superbinder: QuadM human Src Superbinder in tandem with the TrM human Src Superbinder in a single protein (protein)
chain: DSIQAEEWYFGKITRRESERLLLNAENPRGTFLVRESETVKGAYALSVSDFDNAKGLNVRHYLIRKLDSGGFYIWSRTQFNSLQQLVAYYSKHADGLSHRLTTVSPTSKGGSGGSMDSIQAEEWYFGKITRRESERLLLNAENPRGTFLVRESETVKGAYALSVSDFDNAKGLNVRHYLIRKLDSGGFYITSRTQFNSLQQLVAYYSKHADGLSHRLTTVSPTSK
modifications: SH2 protein domain; QuadM-TrM human Src SH2 tandem domain
capture of pTyr-including peptides relative to the TrM human Src Superbinder (200 pmole Superbinder, 200 fmole each peptide): improved capture of pTyr-including peptides | (QT-TrM)/mean (peptide ARFGAP2_pY445 EVDAEpYEAR): 0.3 | (QT-TrM)/mean (peptide ARHGAP15_pY219 SSSTELLSHpYDSDIK): 0.3 | (QT-TrM)/mean (peptide ARHGEF6_pY644 KPSEEEpYVIR): 1.2 | (QT-TrM)/mean (peptide ARID1A_pY229 SAYPPPAPApYALSSPR): 0.3 | (QT-TrM)/mean (peptide ASNS_pY216 DVPLHALpYDNVEK): 0.3 | (QT-TrM)/mean (peptide C9orf78_pY277 ATDDpYHYEK): 0.6 | (QT-TrM)/mean (peptide CD3D_pY160 DDAQpYSHLGGNWAR): 0.3 | (QT-TrM)/mean (peptide CD3E_pY188 ERPPPVPNPDpYEPIR): 0.5 | (QT-TrM)/mean (peptide CD3E_pY199 DLpYSGLNQR): 0.0 | (QT-TrM)/mean (peptide CD3G_pY160 QTLLPNDQLpYQPLK): 0.2 | (QT-TrM)/mean (peptide CD3G_pY171 EDDQpYSHLQGNQLR): 0.0 | (QT-TrM)/mean (peptide CD28_pY206/209 HpYQPpYAPPR): 0.3 | (QT-TrM)/mean (peptide CD28_pY218 DFAApYR): 1.3 | (QT-TrM)/mean (peptide CD84_pY296 IpYDEILQSK): −0.1 | (QT-TrM)/mean (peptide CD84_pY316 EEPVNTVpYSEVQFADK): 0.1 | (QT-TrM)/mean (peptide CD247_pY72 SADAPAYQQGQNQLpYNELNLGR): 1.5 | (QT-TrM)/mean (peptide CD247_pY111 NPQEGLpYNELQK): 0.0 | (QT-TrM)/mean (peptide CD247_pY142 GHDGLpYQGLSTATK): 0.4 | (QT-TrM)/mean (peptide CLPTM1L_pY527 VNEFGESpYEEK): 0.3 | (QT-TrM)/mean (peptide DBN1_pY34 ALpYTYEDGSDDLK): 0.0 | (QT-TrM)/mean (peptide EXOC4_pY51 LEEApYEK): 0.5 | (QT-TrM)/mean (peptide HCLS1_pY175 AALGpYDYK): 0.3 | (QT-TrM)/mean (peptide ITK_pY512 FVLDDQpYTSSTGTK): 1.0 | (QT-TrM)/mean (peptide LAT_pY110 DSDGANSVASpYENEGASGlR): −0.2 | (QT-TrM)/mean (peptide LAT_pY220 EpYVNVSQELHPGAAK): 0.2 | (QT-TrM)/mean (peptide LCP1_pY300 AYpYHLLEQVAPK): 0.4 | (QT-TrM)/mean (peptide LIMD2_pY102 GNpYDEGFGR): 0.0 | (QT-TrM)/mean (peptide PJA2_pY28 AVWPKPAGGpYQTITGR): 0.4 | (QT-TrM)/mean (peptide PLCG2_pY1245 EFSVNENQLQLpYQEK): 1.2 | (QT-TrM)/mean (peptide PTPN7_pY149 AQSQEDGDpYINANYIR): 0.0 | (QT-TrM)/mean (peptide RBMX_pY335 SDLpYSSGR): 0.6 | (QT-TrM)/mean (peptide RFTN1_pY20 RPGNIpYSTLK): 0.3 | (QT-TrM)/mean (peptide SIT1_pY148 pYSEVVLDSEPK): −0.2 | (QT-TrM)/mean (peptide SPEN_pY1399 ASALpYESSR): −0.1 | (QT-TrM)/mean (peptide THUMPD1_pY22 AQpYVLAK): −0.2 | (QT-TrM)/mean (peptide TLR7_pY1041 NALATDNHVApYSQVFK): 0.1 | (QT-TrM)/mean (peptide TRAF3IP3_pY178/179 GQQIpYpYHK): 0.9 | (QT-TrM)/mean (peptide TRAF3IP3_pY179 GQQIYpYHK): 1.5 | (QT-TrM)/mean (peptide ZAP70_pY164 MPWpYHSSLTR): 0.2 | (QT-TrM)/mean (peptide ZAP70_pY292 IDTLNSDGpYTPEPAR): 0.3

— patent US11274129B2, “Methods for protein tyrosine phosphorylation profiling with variant SH2 domains” (priority 2016, dated 2022)
